According to patent US20170320927A1 (Novo Nordisk, published 2017):
Starred links: 1 amine or outer side, 2 acyl side, 3 side chain; linkers in the order of their positions; H or OH if unused. Non-standard residues stand in square brackets, D forms with d. Groups on a side chain read outwards from the residue. No end group written: not given here. *: point of attachment. Amino‑C3‑Gly(Bis) = branched linker 2-[bis(3-aminopropyl)amino]acetyl, two legs on the propylamino groups, O=C(CN(CCCN[*:1])CCCN[*:3])[*:2]; C20 diacid = O=C(O)CCCCCCCCCCCCCCCCCCC(=O)*; C18 diacid = O=C(O)CCCCCCCCCCCCCCCCC(=O)*; γGlu = O=C(O)[C@H](CCC(=O)[*:2])N[*:1]; Trx = NC[C@H]1CC[C@H](C(=O)O)CC1; AEEA = NCCOCCOCC(=O)O; Aib = CC(C)(N)C(=O)O

Experiments:
human GLP-1 receptor [1] = biological target: T1, human GLP-1 receptor (human, UniProt P43220 24-463); assay: competitive SPA, displacement of [125I]-GLP-1-(7-36)NH2 from BHK membranes with human GLP-1 receptor, low HSA (max. 0.001%)
T1 construct: whole, on cells
Method: 1. […] Assay continued with step 3. 2. For the receptor binding assay in the presence of high HSA (2%) 50 μl of the 8% albumin stock was added to each well of an assay plate. Assay continued with step 3. 3. […] 4. Cell membrane aliquots were thawed and diluted to their working concentration. Fifty μl were added to each well in the assay plate. 5. WGA SPA beads were suspended in assay buffer at 20 mg/ml. The suspension was diluted to 10 mg/ml in assay buffer just prior to addition to the assay plate. Fifty μl were added to each well in the assay plate. 6. […] A 25 μl aliquot was reserved for measuring total counts/well. 7. The assay plate was incubated for 2 h at 30° C. 8. The assay plate was centrifuged for 10 min. 9. The assay plate was read in a Packard TopCount NXT instrument.
(§1) The data from the TopCount instrument were transferred to GraphPad Prism software. Individual replicates were analysed using non-linear regression.

human GLP-1 receptor [2] = biological target: T1, human GLP-1 receptor; assay: competitive SPA, displacement of [125I]-GLP-1-(7-36)NH2 from BHK membranes with human GLP-1 receptor, high HSA (2.0%)
Method: 1. For the receptor binding assay in the presence of low HSA (0.005%) 50 μl of the assay buffer was added to each well of an assay plate. Assay continued with step 3. 2. For the receptor binding assay in the presence of high HSA (2%) 50 μl of the 8% albumin stock was added to each well of an assay plate. Assay continued with step 3. 3. […] 4. Cell membrane aliquots were thawed and diluted to their working concentration. Fifty μl were added to each well in the assay plate. 5. WGA SPA beads were suspended in assay buffer at 20 mg/ml. The suspension was diluted to 10 mg/ml in assay buffer just prior to addition to the assay plate. Fifty μl were added to each well in the assay plate. 6. […] A 25 μl aliquot was reserved for measuring total counts/well. 7. The assay plate was incubated for 2 h at 30° C. 8. The assay plate was centrifuged for 10 min. 9. The assay plate was read in a Packard TopCount NXT instrument.
as §1

human GLP-1 receptor [3] = biological target: T1, human GLP-1 receptor; assay: cell-based or functional assay

B1: N{Epsilon-37}-[2-[3-[[2-[2-[2-[[2-[2-[2-[[2-[2-[2-[[2-[2-[2-[[(2S)-2- … (peptide)
peptide: XXEGTFTSDVSSYLEEQAAREFIAWLVRGRK
modifications: not fully specified; Imp (imidazopropionic acid, deamino-histidine) at 7; Aib at 8; Lys37 epsilon-acylated with the branched side chain of the name (GLP-1(7-37) numbering, first residue = 7)
B1 was tested, and the IC50 (human GLP-1 receptor [1]) was 0.13 nM, the IC50 (human GLP-1 receptor [2]) was 45 nM and the “EC50 (pM), in vitro potency, CRE luciferase reporter gene assay in BHK cells expressing the human GLP-1 receptor” value (shortened to “EC50 (pM), in vitro potency”) (human GLP-1 receptor [3]) was 12 pM.

With H[Aib]EGTFTSDVSSYLEEQAAREFIAWLVRK([AEEA-AEEA-AEEA-AEEA-AEEA-AEEA-Amino‑C3‑Gly(Bis)-code 2×γGlu-Trx-C20 diacid])RG (X = Aib) [N{Epsilon-35}-[2-[2-[2-[[2-[2-[2-[[2-[2-[2-[[2-[2-[2-[[2-[2-[2-[[2- …] the IC50 (human GLP-1 receptor [1]) was 0.33 nM, the IC50 (human GLP-1 receptor [2]) was 7.2 nM and the “EC50 (pM), in vitro potency” value (human GLP-1 receptor [3]) was 9.5 pM.

In the case of H[Aib]EGTFTSDVSSYLEEQAAREFIAWLVRGK([Amino‑C3‑Gly(Bis)-code 2×AEEA-AEEA-AEEA-AEEA-γGlu-C18 diacid])G, the IC50 (human GLP-1 receptor [1]) is reported as 0.68 nM.

Work on H[Aib]EGTFTSDVSSYLEEQAAREFIAWLVRGK([AEEA-AEEA-AEEA-AEEA-AEEA-AEEA-Amino‑C3‑Gly(Bis)-code 2×γGlu-Trx-C20 diacid])G [N{Epsilon-36}-[2-[2-[2-[[2-[2-[2-[[2-[2-[2-[[2-[2-[2-[[2-[2-[2-[[2- …] yielded an IC50 (human GLP-1 receptor [1]) of 1.2 nM.

For H[Aib]EGTFTSDVSSYLEEQAAREFIEWLVRGK([AEEA-AEEA-AEEA-AEEA-Amino‑C3‑Gly(Bis)-code 2×γGlu-C18 diacid])G, the IC50 (human GLP-1 receptor [1]) was 1.1 nM, the IC50 (human GLP-1 receptor [2]) was 110 nM and the “EC50 (pM), in vitro potency” value (human GLP-1 receptor [3]) was 7.1 pM.

B2: N{Alpha}([Aib8,Glu22,Arg26,Arg34,Pro37]-GLP-1-(7-37)-peptidyl)-N{Epsilon}[2-[bis[3-[[2-[2-[2-[[2-[2-[2-[[2-[2-[2-[[2-[2-[2-[[2-[2-[2-[[2-[2-[2-[[(4S)-4-carboxy- … (peptide)
peptide: H[Aib]EGTFTSDVSSYLEEQAAREFIAWLVRGRPK([Amino‑C3‑Gly(Bis)-code 2×AEEA-AEEA-AEEA-AEEA-AEEA-AEEA-γGlu-Trx-C20 diacid])
notes: analogue (8Aib, 22E, 26R, 34R, 37P, 38K) GLP-1(7-37)
For B2, the IC50 (human GLP-1 receptor [1]) was 0.31 nM, the IC50 (human GLP-1 receptor [2]) was 30 nM and the “EC50 (pM), in vitro potency” value (human GLP-1 receptor [3]) was 15 pM.
